# Experimental data as given in paper PMC2217618.
# Target: RGDPEG-avidin (UniProt P02701)
# Test: ELISA
# Sequence of RGDPEG-avidin (P02701 25-152): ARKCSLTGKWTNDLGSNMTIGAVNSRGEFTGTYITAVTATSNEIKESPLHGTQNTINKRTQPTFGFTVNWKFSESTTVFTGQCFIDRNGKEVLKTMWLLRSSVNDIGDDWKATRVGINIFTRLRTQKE
# Sequence of Bio-ULS-TRAIL (P50591 114-281): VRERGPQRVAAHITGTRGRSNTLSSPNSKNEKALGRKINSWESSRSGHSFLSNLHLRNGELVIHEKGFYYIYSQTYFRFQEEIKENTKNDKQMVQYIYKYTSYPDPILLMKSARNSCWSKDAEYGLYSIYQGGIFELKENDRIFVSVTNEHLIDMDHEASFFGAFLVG
substance,measurement,value
Bio-ULS-TRAIL (from UniProt P50591 114-281) (ligand),binding less than Bio-NHS-TRAIL,40 % less
